Legend:
ActRII-ECD (mouse) = experiment: SPR; Biacore 2000; receptor ECDs immobilised on a CM5 chip by primary amine coupling, ligands flowed over; at least five concentrations plus zero; global 1:1 Langmuir binding with mass transfer, KD calculated as koff/kon
Chain of ActRII-ECD (mouse) (P27038 whole entry, the tested form may be a part): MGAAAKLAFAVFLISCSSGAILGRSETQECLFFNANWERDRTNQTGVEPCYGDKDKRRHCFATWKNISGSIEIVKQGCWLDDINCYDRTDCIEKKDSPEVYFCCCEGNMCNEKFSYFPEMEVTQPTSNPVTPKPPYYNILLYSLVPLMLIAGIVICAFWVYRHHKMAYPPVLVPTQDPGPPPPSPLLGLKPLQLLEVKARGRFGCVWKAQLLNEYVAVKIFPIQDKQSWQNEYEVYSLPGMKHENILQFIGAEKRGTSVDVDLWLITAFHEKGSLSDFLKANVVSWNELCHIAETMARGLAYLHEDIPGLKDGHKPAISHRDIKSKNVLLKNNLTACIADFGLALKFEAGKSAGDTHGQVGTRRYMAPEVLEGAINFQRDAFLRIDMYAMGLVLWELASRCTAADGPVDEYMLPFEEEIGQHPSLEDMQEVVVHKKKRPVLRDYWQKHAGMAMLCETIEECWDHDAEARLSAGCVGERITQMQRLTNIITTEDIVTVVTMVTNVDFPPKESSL

Molecule | Kd (ActRII-ECD (mouse)) [nM] | koff (ActRII-ECD (mouse)) [s⁻¹] | kon (ActRII-ECD (mouse)) [M⁻¹ s⁻¹] | Smad1 luciferase reporter in C2C12 cells, 30 ng/ml ligand with 30, 100 and 300 ng/ml Noggin (% of signaling levels) (AB212 (BBBBBA) (human))
BMP-2 (BBBBBB) (from UniProt P12643 283-396) (ligand) | 36.8 | 0.0405 | 1.1e+06 | 
Activin-βA (AAAAAA) (ligand) GLECDGKVNICCKKQFFVSFKDIGWNDWIIAPSGYHANYCEGECPSHIAGTSGSSLSFHSTVINHYRMRGHSPFANLKSCCVPTKLRPMSMLYYDDGQNIIKKDIQNMIVEECGCS | 0.203 | 0.000716 | 3.52e+06 | 
Noggin (natural protein) QHYLHIRPAPSDNLPLVDLIEHPDPIFDPKEKDLNETLLRSLLGGHYDPGFMATSPPEDRPGGGGGAAGGAEDLAELDQLLRQRPSGAMPSEIKGLEFSEGLAQGKKQRLSKKLRRKLQMWLWSQTFCPVLYAWNDLGSRFWPRYVKVGSCFSKRSCSVPEGMVCKPSKSVHLTVLRWRCQRRGGQRCGWIPIQYPIISECKCSC |  |  |  | 75

Source: publication PMC3208551
